We go through six molecules from PMC4738331, “A molecular mechanism realizing sequence-specific recognition of nucleic acids by TDP-43”.

Data set [1] has as its target T1, TDP-43 RRM1 (UniProt Q13148 96-185). Kind of data set: pull-down; Anisotropy: 50 mM Tris, 100 mM NaCl, pH 8.0, 10 C, 0.1 uM probe, 0-30 uM protein (RNasin for RNA); pull-down: same buffer on Ni resin, room temperature, 1 h, eluted with 1 M NaCl. The following applies: protein: recombinant; tags: N-term His6 + thrombin site + GSSGSSG linker; His removed by thrombin for anisotropy, kept for pull-down.

The target in data set [2] is T2, TDP-43 RRM1-2 (UniProt Q13148 96-267). Described as above. The following applies: protein: recombinant; tags: N-term His6 + thrombin site + GSSGSSG linker; His removed by thrombin for anisotropy, kept for pull-down.
In data set [3] the target is T3, TDP-43 RRM2 (UniProt Q13148 186-267). The description is as above. The following applies: protein: recombinant; tags: N-term His6 + thrombin site + GSSGSSG linker; His removed by thrombin for anisotropy, kept for pull-down.
The target in data set [4] is T1, TDP-43 RRM1. Kind of data set: fluorescence anisotropy; Anisotropy: 50 mM Tris, 100 mM NaCl, pH 8.0, 10 C, 0.1 uM probe, 0-30 uM protein (RNasin for RNA); pull-down: same buffer on Ni resin, room temperature, 1 h, eluted with 1 M NaCl. The following applies: protein: recombinant; tags: N-term His6 + thrombin site + GSSGSSG linker; His removed by thrombin for anisotropy, kept for pull-down; label: 5'-fluorescein. In general terms: In fluorescence polarisation assays a small probe gives low polarisation when free and higher when bound to something large.

Data set [5] has as its target T2, TDP-43 RRM1-2. The description is as above. The following applies: protein: recombinant; tags: N-term His6 + thrombin site + GSSGSSG linker; His removed by thrombin for anisotropy, kept for pull-down; label: 5'-fluorescein.
The target in data set [6] is T3, TDP-43 RRM2. Described as above. The following applies: protein: recombinant; tags: N-term His6 + thrombin site + GSSGSSG linker; His removed by thrombin for anisotropy, kept for pull-down; label: 5'-fluorescein.
In data set [7] the target is T1, TDP-43 RRM1. Kind of data set: fluorescence anisotropy; RNasin; Anisotropy: 50 mM Tris, 100 mM NaCl, pH 8.0, 10 C, 0.1 uM probe, 0-30 uM protein (RNasin for RNA); pull-down: same buffer on Ni resin, room temperature, 1 h, eluted with 1 M NaCl. The following applies: protein: recombinant; tags: N-term His6 + thrombin site + GSSGSSG linker; His removed by thrombin for anisotropy, kept for pull-down; label: 5'-fluorescein.

Data set [8] concerns the target T2, TDP-43 RRM1-2. Described as above. The following applies: protein: recombinant; tags: N-term His6 + thrombin site + GSSGSSG linker; His removed by thrombin for anisotropy, kept for pull-down; label: 5'-fluorescein.
Data set [9] deals with T3, TDP-43 RRM2. The description is as above. The following applies: protein: recombinant; tags: N-term His6 + thrombin site + GSSGSSG linker; His removed by thrombin for anisotropy, kept for pull-down; label: 5'-fluorescein.

A word on the Kd: it is the equilibrium constant for the complex coming apart.

T2 sequence (Q13148 96-267): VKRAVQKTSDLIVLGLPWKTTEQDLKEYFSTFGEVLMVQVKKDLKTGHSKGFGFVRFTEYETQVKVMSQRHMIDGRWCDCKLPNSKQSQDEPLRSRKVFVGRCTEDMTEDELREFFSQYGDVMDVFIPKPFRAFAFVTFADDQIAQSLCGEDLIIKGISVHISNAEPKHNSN
T3 sequence (Q13148 186-267): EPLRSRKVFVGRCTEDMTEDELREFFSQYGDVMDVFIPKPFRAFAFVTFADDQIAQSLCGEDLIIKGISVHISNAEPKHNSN
T1 sequence (Q13148 96-185): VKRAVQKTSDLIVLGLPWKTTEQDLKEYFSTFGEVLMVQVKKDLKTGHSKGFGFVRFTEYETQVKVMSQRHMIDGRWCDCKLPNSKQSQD

As for TTTTTTTTTTTT (ssDNA) [T12], the figures for the binding result with TDP-43 RRM1 [1], with TDP-43 RRM1-2 [2] and in the data set with TDP-43 RRM2 [3] were “binds”, “binds” and “no binding”, respectively.

Take TGTGTGTG (ssDNA) [Fl-(TG)4 ssDNA]: the Kd with TDP-43 RRM1 [4] was 52 ± 12 nM; with TDP-43 RRM1-2 [5], 77 ± 4.2 nM. The binding result with TDP-43 RRM2 [6] is “no binding”.

In the case of ACACACAC (ssDNA) [Fl-(AC)4 ssDNA], the binding result with TDP-43 RRM1 [4], in the data set with TDP-43 RRM1-2 [5] and in the data set with TDP-43 RRM2 [6] was “no binding” each time.

Consider UGUGUGUG (ssDNA, DNA with T replaced by U) [Fl-(UG)4 ssDNA], for which the figures for the Kd in the data set with TDP-43 RRM1 [4] and in the data set with TDP-43 RRM1-2 [5] were 61 ± 30 nM and 150 ± 23 nM, respectively. The binding result in the data set with TDP-43 RRM2 [6] is on record as “no binding”.

UGUGUGUG (ssRNA) [Fl-(UG)4 RNA]: the values for the Kd in the data set with TDP-43 RRM1 [7] and with TDP-43 RRM1-2 [8] were 28 ± 9 nM and 3.5 ± 2.3 nM, respectively. Besides, the binding result in the data set with TDP-43 RRM2 [9] was “no binding”.

In the case of TTTTTTTTTTTTTTTTTTTTTTTTTTTTTT (ssDNA) [T30], the binding result in the data set with TDP-43 RRM1 [1] is “binds”; with TDP-43 RRM1-2 [2], “binds”; in the data set with TDP-43 RRM2 [3] it was “no binding”.
